Results published in US20250066499A1 (SUNSHINE GUOJIAN PHARMACEUTICAL SHANGHAI, published 2025).
Residue numbers refer to the chain shown, from its start.

B1: 48A11-HuV33 (antibody, human IgG4, V domains shown)
VH: QVQLVQSGAEVKKPGASVKVSCKASGYTFTSYWMHWVRQAPGQGLEWIGEINPSIGRTNYNEKFKSRVTLTRDTSTSTAYMELSSLRSEDTAVYYCARRVYGTMDYWGQGTLVTVSS
VL: DIQMTQSPSSLSASVGDRVTITCKASQDINSYLSWFQQKPGKSPKLLIYRANIWVDGVPSRFSGSGSGQDYTFTISSLQPEDIATYYCLQYDELYTFGQGTKVEIK
notes: Humanized
B2: 56B10-HuV31 (antibody, human IgG4, V domains shown)
VH: QVQLQQSGAEVKKPGASVKVSCKASGYTFTRYYIYWVRQRPGQGLEWIGWIYPGNFNTKYNEKFKGRATLTADTSASTAYMELSSLTSEDTAVYYCARDVYDYAGFAYWGQGTLVTVSS
VL: DIQLTQSPSFLSASVGDRVTITCKASQGVATAVAWYQQKPGQSPKLLIYWASTRHTGVPDRFSGSGSGTEFTLTISSLQPEDFATYYCQQYSSYPWTFGQGTKVEIK
notes: Humanized

Columns and labels:
CD73-ND-N187A = molecular target: T1, CD73-ND-N187A (human, UniProt P21589 27-317); test: ELISA, high plateau value (OD 450 nm)
T1 construct: Alanine mutant of CD73-ND
T1 sequence: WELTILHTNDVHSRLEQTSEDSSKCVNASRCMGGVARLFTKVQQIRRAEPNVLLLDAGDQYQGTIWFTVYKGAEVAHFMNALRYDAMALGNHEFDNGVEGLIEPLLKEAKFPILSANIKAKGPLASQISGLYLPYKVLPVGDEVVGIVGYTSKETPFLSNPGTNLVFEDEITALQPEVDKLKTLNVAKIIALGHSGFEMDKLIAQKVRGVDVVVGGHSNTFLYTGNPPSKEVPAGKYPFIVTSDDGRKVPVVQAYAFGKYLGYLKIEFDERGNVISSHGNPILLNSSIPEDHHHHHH
Method: (§1) The ELISA plates were coated with SA protein diluted to 1.5 μg/mL in coating buffer (50 mM carbonate coating buffer, pH 9.6) and incubated overnight at 4° C. The supernatant was discarded, and the plates were washed three times with PBST. Then, 5% skimmed milk powder prepared with PBS was added for blocking and the plates were incubated for 2 h at 37° C. After washing the plates once with PBST, CD73-biotin protein (prepared by biotinylating CD73-His protein according to the EZ-Link NHS-Biotin Reagent instructions) was diluted to 0.5 μg/mL and added at 100 μL/well for incubation at room temperature for 1 h. The plates were washed three times with PBST, and the prepared murine-derived monoclonal antibodies against human CD73 were serially diluted with 1% BSA buffer prepared with PBST and added to the ELISA plates at 100 μl/well. The plates were incubated at 37° C. for 1 h. After washing the plates three times with PBST, HRP-labeled goat anti-mouse IgG secondary antibody was added and the plates were incubated for 30 min at 37° C. After washing the plates three times with PBST, the residual droplets were patted dry on absorbent paper as much as possible. Then, 100 μl of TMB color developing solution was added to each well, and the plates were incubated in the dark at room temperature for 5 min for color development. Subsequently, 50 μl of 2M H₂SO₄ stop solution was added to each well to terminate the substrate reaction. The OD values were read at 450 nm using a multimode microplate reader to analyze the binding ability of the tested antibodies to the target antigen human CD73-His.
(§2) Referring to the experimental method in Example 3, the affinity of 48A11-HuV33 for various mutant proteins of CD73-ND was determined. The SA protein was diluted to 1 μg/mL for coating the ELISA plates, and the biotinylated CD73 protein (CD73-biotin) was used at a concentration of 0.1 μg/mL.

CD73-ND-his = molecular target: T2, CD73-ND-his (human, UniProt P21589 27-317); test: ELISA, high plateau value (OD 450 nm)
T2 construct: Biotinylated and captured on streptavidin in the ELISA
T2 sequence: T1 sequence with A187N
Method: as §1, §2

CD73-ND-V186A = molecular target: T3, CD73-ND-V186A (human, UniProt P21589 27-317); test: ELISA, high plateau value (OD 450 nm)
T3 construct: Alanine mutant of CD73-ND
T3 sequence: T1 sequence with V186A, A187N
Method: as §1, §2

CD73-ND-L184A = molecular target: T4, CD73-ND-L184A (human, UniProt P21589 27-317); test: ELISA, biotinylated antigen on streptavidin plate
T4 construct: Alanine mutant of CD73-ND
T4 sequence: T1 sequence with L184A, A187N
Method: as §1, §2

CD73-ND-D142A = molecular target: T5, CD73-ND-D142A (human, UniProt P21589 27-317); test: ELISA, biotinylated antigen on streptavidin plate
T5 construct: Alanine mutant of CD73-ND
T5 sequence: T1 sequence with D142A, A187N
Method: as §1, §2

CD73-CD-his = molecular target: T6, CD73-CD-his (human, UniProt P21589 337-549); test: ELISA as in Example 3, antigen CD73-CD-his, antibody titrated, absorbance 450 nm
T6 construct: it fits residue S549 of P21589 (27+522)
T6 sequence: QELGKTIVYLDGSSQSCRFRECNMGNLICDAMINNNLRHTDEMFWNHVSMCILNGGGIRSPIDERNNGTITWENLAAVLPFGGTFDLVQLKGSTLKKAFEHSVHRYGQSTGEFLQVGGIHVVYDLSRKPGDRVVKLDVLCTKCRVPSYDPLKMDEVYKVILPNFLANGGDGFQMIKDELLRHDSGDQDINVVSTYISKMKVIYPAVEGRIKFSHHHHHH

Row | Binder | Top (CD73-ND-N187A) | Top (CD73-ND-his) | Top (CD73-ND-V186A) | EC50 (CD73-ND-L184A) | EC50 (CD73-ND-D142A) | binding result (CD73-CD-his)
1 | B1 | 1.77 | 1.94 | 1.62 | 0.612 nM | 0.344 nM | 
2 | B2 |  |  |  |  |  | no binding (tested: 10 nM)
